{
  "source": "patent US20240158831A1",
  "about": "(PROMEGA, published 2024)",
  "proteins": {"B1": {"name": "OgLuc variant L27V (9B8 opt+K33N+L27V+T39T+K43R+Y68D) (enzyme)", "chain": "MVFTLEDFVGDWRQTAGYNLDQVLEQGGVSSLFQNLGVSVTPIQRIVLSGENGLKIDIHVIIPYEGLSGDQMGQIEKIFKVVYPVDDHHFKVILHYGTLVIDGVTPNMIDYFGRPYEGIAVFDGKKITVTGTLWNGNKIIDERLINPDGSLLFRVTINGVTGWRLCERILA", "notes": "Expressed as a HaloTag fusion (pFN18A) in E. coli KRX and purified with the HaloTag Protein Purification System; It eluted as a 24 kDa protein"}, "B2": {"name": "OgLuc variant C1+A4E, HQHQHQ N-terminally tagged (enzyme)", "chain": "HQHQHQMVFTLEDFVGDWRQTAGYNQDQVLEQGGLSSLFQKLGVSVTPIQKIVLSGENGLKFDIHVIIPYEGLSGFQMGLIEMIFKVVYPVDDHHFKIILHYGTLVIDGVTPNMIDYFGRPYEGIAVFDGKKITVTGTLWNGNKIIDERLINPDGSLLFRVTINGVTGWRLCERILA", "notes": "Purified from E. coli KRX with the HISLINK system"}, "B3": {"name": "OgLuc variant 9B8, HQHQHQ N-terminally tagged (enzyme)", "chain": "HQHQHQMVFTLEDFVGDWRQTAGYNLDQVLEQGGLSSLFQKLGVSVTPIQKIVLSGENGLKIDIHVIIPYEGLSGYQMGQIEKIFKVVYPVDDHHFKVILHYGTLVIDGVTPNMIDYFGRPYEGIAVFDGKKITVTGTLWNGNKIIDERLINPDGSLLFRVTINGVTGWRLCERILA", "notes": "as for B2"}},
  "target": "the molecule itself",
  "assay": "gel filtration chromatography (Superdex 200 5/150 GL), self-association",
  "excerpt": "Gel filtration analysis was used to verify the expected molecular weight of the purified OgLuc proteins based on the theoretical values and consequently to determine their oligomeric state. A comparison between the relative hydrodynamic volume of the OgLuc variants C1+A4E and 9B8 was made by gel filtration chromatography. For this analysis, the nucleotide sequence for the OgLuc variants, C1+A4E and 9B8, were cloned into a HQ-Tagged FLEXI® Vector (Promega Corp.) to create a HQHQHQ N-terminally tagged protein that was overexpressed in E. coli KRX cells. The overexpressed proteins were purified using the HISLINK™ Protein Purification System (Promega Corp.) according to manufacturer's instructions. Samples of each individual standard and sample protein were analyzed by gel filtration chromatography, which was performed at 24° C. on an Agilent 1200 HPLC, using a Superdex 200 5/150 GL column (GE Healthcare) with a flow rate of 0.25 mL/min (FIGS. 43A-B). The mobile phase (i.e., running buffer) consisted of 50 mM Tris and 150 mM NaCl, pH 7.5. Protein elution was monitored at 214 and 280 nm. A standard calibration curve was generated using: 1) Ovalbumin, 43 kDa (GE Healthcare), 2) Carbonic Anhydrase, 29 kDa (Sigma) and 3) Myoglobin, 17 kDa (Horse Heart, Sigma). The molecular weights of the purified proteins were calculated directly from the calibration curve.\nThe relative hydrodynamic volume of the L27V variant was made by gel filtration chromatography. For this analysis, the nucleotide sequence for the L27V variant was cloned into a HaloTag® vector pFN18A (Promega Corp.) to create a HaloTag®-terminally tagged protein that was overexpressed in E. coli KRX cells (Promega Corp.). The overexpressed protein was purified using the HaloTag® Protein Purification System (Promega Corp.) according to manufacturer's instructions. Samples of each individual standard and sample protein were analyzed by gel filtration chromatography performed at 24° C. on an Agilent 1200 HPLC using a Superdex 200 5/150 GL column (GE Healthcare) with a flow rate of 0.25 mL/min (FIG. 56).",
  "data": [
    {"protein": "B1", "values": [
      {"measurement": "binding result", "value": "no binding"}
    ]},
    {"protein": "B2", "values": [
      {"measurement": "binding result", "value": "binds"}
    ]},
    {"protein": "B3", "values": [
      {"measurement": "binding result", "value": "no binding"}
    ]}
  ]
}
